Target: the molecule itself
Experiment: crystal structure

B1: Homo sapiens REXO2 (enzyme)
chain: MAAGESMAQRMVWVDLEMTGLDIEKDQIIEMACLITDSDLNILAEGPNLIIKQPDELLDSMSDWCKEHHGKSGLTKAVKESTITLQQAEYEFLSFVRQQTPPGLCPLAGNSVHEDKKFLDKYMPQFMKHLHYRIIDVSTVKELCRRWYPEEYEFAPKKAASHRALDDISESIKELQFYRNNIFKKKIDEKKRKIIENGENEKTVS
- binding result: binds
